How the values were obtained:
[1] = target: T1, murine PD-1 (Sino biological) (murine, UniProt Q02242 25-167, limits assumed); assay: ELISA on plate-coated murine PD-1
T1 sequence (looked up): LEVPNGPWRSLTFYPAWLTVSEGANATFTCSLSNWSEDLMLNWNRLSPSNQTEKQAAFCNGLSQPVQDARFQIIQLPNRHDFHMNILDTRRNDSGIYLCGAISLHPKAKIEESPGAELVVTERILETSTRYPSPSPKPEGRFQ
Method: 3.3.1 Cross-reactivity to cynomolgus PD-1 and murine PD-1: Cross-reactivity was measured by ELISA. Plates (Nunc) were coated with cynomolgus PD-1 (Sino Biological) and murine PD-1 (Sino biological) at 1 μg/ml overnight at 4° C. After blocking and washing, […] antibodies were added to the plates and incubated at room temperature for 1 h. The plates were then washed and subsequently incubated with secondary antibody goat anti rat IgG1 HRP (Bethyl) and goat anti rat IgG2b HRP (Bethyl) for 45 min. After washing, TMB substrate was added and the interaction was stopped by 2M HCl. The absorbance at 450 nm was read using a microplate reader (Molecular Device).

[2] = target: T2, human PD-1 expressed on cells (human, UniProt Q15116 25-288); assay: FACS on CHO-S cells expressing human PD-1
T2 construct: whole, on cells; also called PD-1 expressing CHO cell; PD-1 transfected CHO-S cells
Method: (§1) 3.1 Binding affinity of PD-1 antibodies to cell surface PD-1 molecules tested by flow cytometry (FACS): Antibody binding affinity to cell surface PD-1 was performed by FACS analysis. CHO-S cells expressing human PD-1 were transferred in to 96-well U-bottom plates (BD) at a density of 5×10⁵ cells/ml. Tested antibodies were 1:2 serially diluted in wash buffer (1×PBS/1% BSA) and incubated with cells at 4° C. for 1 h. The secondary antibody goat anti-human IgG Fc FITC (3.0 moles FITC per mole IgG, (Jackson Immunoresearch Lab) was added and incubated at 4° C. in the dark for 1 h. The cells were then washed once and resuspended in 1×PBS/1% BSA, and analyzed by flow cytometery (BD). Fluorescence intensity will be converted to bound molecules/cell based on the quantitative beads Quantum™ MESF Kits, Bangs Laboratories, Inc.). KD was calculated using Graphpad Prism5.

[3] = target: T2, human PD-1 expressed on cells; assay: FACS on CHO-S cells expressing human PD-1, antibody in formulation buffer
Method: as §1

[4] = target: T2, human PD-1 expressed on cells; assay: FACS on CHO-S cells expressing human PD-1, antibody in 1xPBS pH 7.4
Method: as §1

T2 sequence (Q15116 25-288): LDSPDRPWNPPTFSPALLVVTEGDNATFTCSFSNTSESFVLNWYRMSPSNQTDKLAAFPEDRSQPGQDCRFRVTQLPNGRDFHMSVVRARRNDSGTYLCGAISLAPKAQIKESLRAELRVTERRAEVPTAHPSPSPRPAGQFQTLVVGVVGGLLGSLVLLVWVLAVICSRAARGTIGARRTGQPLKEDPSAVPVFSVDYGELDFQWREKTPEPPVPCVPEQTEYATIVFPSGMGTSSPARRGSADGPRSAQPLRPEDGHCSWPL

B1: 1.139.15 hAb (antibody, V domains shown)
VH: QLQLQESGPGLVKPSETLSLTCTVSGGSISSTTYYWGWIRQPPGKGLEWIGSISYSGTTYYNPSLKSRVTIPVDTSKNQISLKLSSVTAADTSLYYCARHLGYNSNWYPFDYWGQGTLVTVSS
VL: QSALTQPPSVSGSPGQSVTISCTGTSSDVGSYNRVSWYQQPPGTAPEVIIYEVSNRPSGVPDRFSGSKSGNTASLTISGLQAEDEADYYCSSYTSSSTWVFGGGTKLTVL
notes: fully human monoclonal antibody with a human constant region of IgG4 isotype
binding result [1]: no binding (tested: 1 g/ml antibodies (so in the source))
EC50 [2]: ~2 nM

B2: 1.7.3 hAb (antibody, V domains shown)
VH: QLQLQESGPGLVKPSETLTLTCTVSGDSISSTTYYWVWIRQPPGKGLEWIGSISYSGNTYYNPSLKSRVTISVDTSKNHFSLKLSSVAATDTALYYCARHLGYNGRYLPFDYWGQGTLVTVSS
VL: QSALTQPASVSGSPGQSITISCTGTSSDVGFYNYVSWYQQHPGKAPELMIYDVTNRPSGVSDRFSGSKSGNTASLTISGLQAEDEADYYCSSYTSISTWVFGGGTKLTVL
notes: as for B1
binding result [1]: no binding (tested: 1 g/ml antibodies (so in the source))
EC50 [2]: ~2 nM

B3: 1.103.11-v2 hAb (antibody, IgG4, V domains shown)
VH: QLQLQESGPGLVKPSETLTLTCTVSADSISSTTYYWVWIRQPPGKGLEWIGSISYSGSTYYNPSLKSRVTVSVDTSKNQFSLKLNSVAATDTALYYCARHLGYNGRYLPFDYWGQGTLVTVSS
VL: QSALTQPASVSGSPGQSITISCTGTSSDVGFYNYVSWYQQHPGKAPELMIYDVSNRPSGVSDRFSGSKSGNTASLTISGLQAEDEADYYCSSYTSISTWVFGGGTKLTVL
notes: human constant region of IgG4 isotype
EC50 [3]: ~3.12 nM
EC50 [4]: ~2.52 nM

B4: 1.49.9 hAb (antibody, V domains shown)
VH: QLQLQESGPGLVKPSETLSLTCTVSGGSISSSTYYWGWIRQPPGKGLEWIGSISYSGSTYYNPSLKSRVTISVDTSKNQFSLKLSSVTDADTAVYYCARHLGYNGRYLPFDYWGQGTLVTVSS
VL: QSALTQPASVSGSPGQSITISCTGTSSDVGFYNYVSWYQQHPGKAPEVMIYDVSNRPSGVSDRFSGSKSGNTASLTISGLQAEDEADYYCSSYTSISTWVFGGGTKLTVL
notes: as for B1
binding result [1]: no binding (tested: 1 g/ml antibodies (so in the source))
EC50 [2]: ~2 nM

B5: 1.153.7 hAb (antibody, V domains shown)
VH: EVQLLESGGGLVQPGGSLRLSCAASGFTFSSHAMSWVRQAPGKGLEWVSTITGGGGSIYYADSVKGRFTISRDNSKNTLYLQMNSLRAEDTAVYYCAKNRAGEGYFDYWGQGTLVTVSS
VL: SYELTQPLSVSVALGQTARITCGGDNIGNKDVHWYQQKPGQAPVLVIYRDSNRPSGIPEGFSGSNSGNTATLTISRAQAGDEADYYCQVWDSIWVFGGGTKLTVL
notes: as for B1
binding result [1]: no binding (tested: 1 g/ml antibodies (so in the source))
EC50 [2]: ~2 nM

Source: patent US20190270815A1 (WUXI BIOLOGICS IRELAND, published 2019)
